{"source": "patent US20250332197A1", "about": "(SUNSHINE LAKE PHARMA, published 2025)", "binders": {"B1": {"name": "1B6-huVH1-HC (IgG1) huVL1 (antibody)", "heavy": "not shown", "light": "DIVMTQSPSSLSVSVGDRVTMTCKSSQSLFNSGNQKNYLTWYQQKPGKAPKLLIYWASTRESGVPDRFSGSGSGTDFTLTISSVQPEDFATYFCQNDYSYPLTFGGGTKLEIKRTVAAPSVFIFPPSDEQLKSGTASVVCLLNNFYPREAKVQWKVDNALQSGNSQESVTEQDSKDSTYSLSSTLTLSKADYEKHKVYACEVTHQGLSSPVTKSFNRGEC", "notes": "humanized 1B6, human IgG1, kappa"}, "B2": {"name": "1B6-huVH1huVL1 (antibody, human IgG4 S228P, kappa)", "heavy": "not shown", "light": "B1 light", "notes": "humanized 1B6, human IgG4, kappa"}, "B3": {"name": "1B6-huVH3-HC (IgG1) huVL2 (antibody)", "heavy": "not shown", "light": "B1 light with V3Q, V13A, D66S, V84L, F93Y", "notes": "as for B1"}, "B4": {"name": "1B6-huVH2-HC (IgG1) huVL1 (antibody)", "heavy": "not shown", "light": "B1 light", "notes": "as for B1"}, "B5": {"name": "1B6-huVH4-HC (IgG1) huVL2 (antibody)", "heavy": "not shown", "light": "B1 light with V3Q, V13A, D66S, V84L, F93Y", "notes": "as for B1"}, "B6": {"name": "1B6-huVH5-HC (IgG1) huVL3 (antibody)", "heavy": "not shown", "light": "B1 light with V3Q, V13A, M21I, K24R, D66S, V84L, F93Y", "notes": "as for B1"}, "B7": {"name": "1B6-huVH2-HC (IgG1) huVL2 (antibody)", "heavy": "not shown", "light": "B1 light with V3Q, V13A, D66S, V84L, F93Y", "notes": "as for B1"}, "B8": {"name": "1B6-huVH3-HC (IgG1) huVL3 (antibody)", "heavy": "not shown", "light": "B1 light with V3Q, V13A, M21I, K24R, D66S, V84L, F93Y", "notes": "as for B1"}, "B9": {"name": "1B6-huVH1-HC (IgG1) huVL2 (antibody)", "heavy": "not shown", "light": "B1 light with V3Q, V13A, D66S, V84L, F93Y", "notes": "as for B1"}, "B10": {"name": "1B6-huVH3-HC (IgG1) huVL1 (antibody)", "heavy": "not shown", "light": "B1 light", "notes": "as for B1"}, "B11": {"name": "1B6-huVH4-HC (IgG1) huVL3 (antibody)", "heavy": "not shown", "light": "B1 light with V3Q, V13A, M21I, K24R, D66S, V84L, F93Y", "notes": "as for B1"}, "B12": {"name": "1B6-huVH5-HC (IgG1) huVL2 (antibody)", "heavy": "not shown", "light": "B1 light with V3Q, V13A, D66S, V84L, F93Y", "notes": "as for B1"}}, "key": {"[1]": {"molecular_target": "T1, claudin-18.2 antigen (manufacturer: GenScript, batch number: R50092011) (UniProt P56856-2 1-261, limits assumed)", "T1 construct": "Bought antigen", "T1 sequence (looked up)": "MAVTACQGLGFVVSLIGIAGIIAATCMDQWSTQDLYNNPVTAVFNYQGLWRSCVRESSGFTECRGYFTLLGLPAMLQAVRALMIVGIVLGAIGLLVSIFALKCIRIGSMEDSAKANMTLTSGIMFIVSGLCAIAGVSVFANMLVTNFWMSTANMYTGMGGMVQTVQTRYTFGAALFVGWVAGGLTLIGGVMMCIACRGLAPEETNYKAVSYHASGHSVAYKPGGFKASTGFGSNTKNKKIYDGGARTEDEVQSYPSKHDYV", "assay": "ELISA, plate coated with claudin-18.2 antigen", "procedure": "The ELISA plates were washed three times with PBST and blocked with 5% PBS-milk for 2 h at room temperature. The ELISA plate was washed three times with PBST, and the diluted antibodies were added to the ELISA plate, 30 μL per well, and incubated at room temperature for 60 min. The plates were washed three times with PBST and incubated with anti-human IgG-Fc-HRP (abcam, ab97225) for 50 min at room temperature. The plate was washed 12 times with PBST, and TMB was added, 30 μL per well. The reaction was terminated with stop solution and OD450 was read. The ELISA affinity EC50 was calculated."}, "[2]": {"molecular_target": "T1, claudin-18.2 antigen (manufacturer: …)", "assay": "Gator label-free kinetics, antibody loaded, antigen 2000-500 nM", "procedure": "The GATOR instrument and associated software were opened and the Kinetics experimental mode was selected. After data collection, Kinetics fitting was performed to calculate the affinity kinetic parameters. The correlation coefficient R² of all antibodies in the Global fitting mode was greater than 0.95, which met the system suitability requirements and the results were reliable."}}, "note": "Numbering of substitutions follows the chain as printed.", "data": [{"binder": "B1", "values": [{"measurement": "EC50", "setting": "[1]", "result": 0.0248, "unit": "µg/mL"}, {"measurement": "Kd", "setting": "[2]", "result": 63.3, "unit": "nM"}, {"measurement": "koff", "setting": "[2]", "result": 0.00123, "unit": "s⁻¹"}, {"measurement": "kon", "setting": "[2]", "result": 19400, "unit": "M⁻¹ s⁻¹"}]}, {"binder": "B2", "values": [{"measurement": "EC50", "setting": "[1]", "result": 0.0839, "unit": "µg/mL"}, {"measurement": "Kd", "setting": "[2]", "result": 98.8, "unit": "nM"}, {"measurement": "koff", "setting": "[2]", "result": 0.00222, "unit": "s⁻¹"}, {"measurement": "kon", "setting": "[2]", "result": 22400, "unit": "M⁻¹ s⁻¹"}]}, {"binder": "B3", "values": [{"measurement": "EC50", "setting": "[1]", "result": 0.0614, "unit": "µg/mL"}, {"measurement": "Kd", "setting": "[2]", "result": 10.9, "unit": "nM"}, {"measurement": "koff", "setting": "[2]", "result": 0.00012, "unit": "s⁻¹"}, {"measurement": "kon", "setting": "[2]", "result": 11100, "unit": "M⁻¹ s⁻¹"}]}, {"binder": "B4", "values": [{"measurement": "EC50", "setting": "[1]", "result": 0.0403, "unit": "µg/mL"}, {"measurement": "Kd", "setting": "[2]", "result": 9.84, "unit": "nM"}, {"measurement": "koff", "setting": "[2]", "result": 0.000101, "unit": "s⁻¹"}, {"measurement": "kon", "setting": "[2]", "result": 10300, "unit": "M⁻¹ s⁻¹"}]}, {"binder": "B5", "values": [{"measurement": "EC50", "setting": "[1]", "result": 0.0431, "unit": "µg/mL"}, {"measurement": "Kd", "setting": "[2]", "result": 20.5, "unit": "nM"}, {"measurement": "koff", "setting": "[2]", "result": 0.000207, "unit": "s⁻¹"}, {"measurement": "kon", "setting": "[2]", "result": 10100, "unit": "M⁻¹ s⁻¹"}]}, {"binder": "B6", "values": [{"measurement": "EC50", "setting": "[1]", "result": 0.035, "unit": "µg/mL"}, {"measurement": "Kd", "setting": "[2]", "result": 76.8, "unit": "nM"}, {"measurement": "koff", "setting": "[2]", "result": 0.00175, "unit": "s⁻¹"}, {"measurement": "kon", "setting": "[2]", "result": 22700, "unit": "M⁻¹ s⁻¹"}]}, {"binder": "B7", "values": [{"measurement": "EC50", "setting": "[1]", "result": 0.0301, "unit": "µg/mL"}, {"measurement": "Kd", "setting": "[2]", "result": 11.8, "unit": "nM"}, {"measurement": "koff", "setting": "[2]", "result": 0.00013, "unit": "s⁻¹"}, {"measurement": "kon", "setting": "[2]", "result": 11000, "unit": "M⁻¹ s⁻¹"}]}, {"binder": "B8", "values": [{"measurement": "EC50", "setting": "[1]", "result": 0.0725, "unit": "µg/mL"}, {"measurement": "Kd", "setting": "[2]", "result": 9.64, "unit": "nM"}, {"measurement": "koff", "setting": "[2]", "result": 0.000116, "unit": "s⁻¹"}, {"measurement": "kon", "setting": "[2]", "result": 12100, "unit": "M⁻¹ s⁻¹"}]}, {"binder": "B9", "values": [{"measurement": "EC50", "setting": "[1]", "result": 0.0162, "unit": "µg/mL"}, {"measurement": "Kd", "setting": "[2]", "result": 86.7, "unit": "nM"}, {"measurement": "koff", "setting": "[2]", "result": 0.00171, "unit": "s⁻¹"}, {"measurement": "kon", "setting": "[2]", "result": 19700, "unit": "M⁻¹ s⁻¹"}]}, {"binder": "B10", "values": [{"measurement": "EC50", "setting": "[1]", "result": 0.0592, "unit": "µg/mL"}, {"measurement": "Kd", "setting": "[2]", "result": 7.65, "unit": "nM"}, {"measurement": "koff", "setting": "[2]", "result": "7.83e-05", "unit": "s⁻¹"}, {"measurement": "kon", "setting": "[2]", "result": 10200, "unit": "M⁻¹ s⁻¹"}]}, {"binder": "B11", "values": [{"measurement": "EC50", "setting": "[1]", "result": 0.0519, "unit": "µg/mL"}, {"measurement": "Kd", "setting": "[2]", "result": 43.9, "unit": "nM"}, {"measurement": "koff", "setting": "[2]", "result": 0.000799, "unit": "s⁻¹"}, {"measurement": "kon", "setting": "[2]", "result": 18200, "unit": "M⁻¹ s⁻¹"}]}, {"binder": "B12", "values": [{"measurement": "EC50", "setting": "[1]", "result": 0.0298, "unit": "µg/mL"}, {"measurement": "Kd", "setting": "[2]", "result": 59.7, "unit": "nM"}, {"measurement": "koff", "setting": "[2]", "result": 0.00129, "unit": "s⁻¹"}, {"measurement": "kon", "setting": "[2]", "result": 21600, "unit": "M⁻¹ s⁻¹"}]}]}
